Laboratory results: the supplement of paper PMC9170038

Test system: MS2 coat protein
Assay: apparent KD of MS2 coat protein; designed switch direction (-1 OFF switch, 1 ON switch): 1; higher = weaker reporter binding
Outline: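 Designed RNA switches with common flanks were made on Illumina chips by stalled E. coli RNA polymerase. Titration with SNAP-549-labelled MS2 coat protein doubled from 0.7 or 1.5 nM up to 3 µM. Apparent KD is each design's median over clusters after curve-fitting normalised fluorescence.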

[1] = Eterna round: R95, input ligand: FMN 200 uM
[2] = Eterna round: R95, input ligand: microRNA oligo, concentration not stated
[3] = Eterna round: R95, input ligand: none
[4] = input ligand: microRNA oligo, concentration not stated

Sequence	apparent KD of MS2 coat protein [1] [µM]	apparent KD of MS2 coat protein [2] [µM]	apparent KD of MS2 coat protein [3] [µM]	apparent KD of MS2 coat protein (input ligand: FMN 200 uM) [µM]	apparent KD of MS2 coat protein [4] [µM]	apparent KD of MS2 coat protein (input ligand: none) [µM]
GGAGCCGACACCGAGGAUAUUCAUAUUAAAACAUGAGGAUCACCCAUGUAGGCCAGAAGGCCUUGGGAGAAGGCGGAUCGGCUCG [Xeonanis - 8] (puzzle: Same State 2)	0.0212	0.24	0.301			
GGAGCCGGCACCGAGGAUAUUCAUAUUAAAACAUGAGGAUCACCCAUGUACAGGAGAACCUGUUGGGAGAAGGCGGAUCGGCUCG [Xeonanis - 25] (puzzle: Same State 2)	0.0299	0.296	0.437			
GGAGCCGGCACCGAGGAUAUUCAUAUUAAAACAUGAGGAUCACCCAUGUGGGCCAGAAGGCCUUGGGAGAAGGCGGAUCGGCUCG [Xeonanis - 1] (Eterna round: R96, puzzle: Same State 2)				0.0186	0.141	0.314
GGAGCCGGCACCGAGGAUAUUCAUAUUAAAACAUGAGGAUCACCCAUGUGGGCCAGAAGGCCUUGGGAGAAGGCGGAUCGGCUCG [Xeonanis - 1] (puzzle: Same State 2)	0.0156	0.216	0.425			
GGAGCCGGCACGGAGGAUAUUCAUAUUAAAACAUGAGGAUCACCCAUGUAGGCCAGAAGGCCUUGGGAGAAGGCCGAUCGGCUCG [Xeonanis - 15] (Eterna round: R96, puzzle: Same State 2)				0.0212	0.258	0.333
GGAGCCGGCACGGAGGAUAUUCAUAUUAAAACAUGAGGAUCACCCAUGUAGGCCAGAAGGCCUUGGGAGAAGGCCGAUCGGCUCG [Xeonanis - 15] (puzzle: Same State 2)	0.0219	0.306	0.409			
GGAGCCGGCAGGCAGGAUAUUCAUAUUAAAACAUGAGGAUCACCCAUGUAGGCCAGAAGGCCUUGGGAGAAGGGCCAUCGGCUCG [Xeonanis - 13] (puzzle: Same State 2)	0.0278	0.225	0.569			
GGAGCCGGCCUAGGAUAUUUCAUAAAAGAACAUGAGGAUCACCCAUGUAGGCCAGAAGGCCUUGGGAAGAAGGAGGUCGGCUCC [Loop Effect - G28] (Eterna round: R96, puzzle: Same State NG 2)				0.0144	0.0224	0.0318
GGAGCCGGCCUAGGAUAUUUCAUAAAUUUACAUGAGGAUCACCCAUGUAGGCCAGAAGGCCUUGGGAAGAAGGAGGUCGGCUCC [Loop Effect - U27,U28,U29] (Eterna round: R96, puzzle: Same State NG 2)				0.0113	0.0275	0.0405
GGAGCCGGUACUGAGGAUAUUCAUAUUAAAACAUGAGGAUCACCCAUGUAGGCCAGAAGGCCUUGGGAGAAGGCGGACCAGCUCG [Atgexeedri - 1] (Eterna round: R96, puzzle: Same State 2)				0.0275	0.302	0.417
GGAGCCGGUACUGAGGAUAUUCAUAUUAAAACAUGAGGAUCACCCAUGUAGGCCAGAAGGCCUUGGGAGAAGGCGGACCAGCUCG [Atgexeedri - 1] (puzzle: Same State 2)	0.0188	0.283	0.414			
GGAGCCGGUACUGAGGAUAUUCAUAUUAAAACAUGAGGAUCACCCAUGUAGGCCGGAAGGCCUUGGGAGAAGGCAGACCAGCUCG [Atgexeedri - 7] (puzzle: Same State 2)	0.0231	0.255	0.441			
GGAGCCGGUACUGAGGAUAUUCAUAUUAAAACAUGAGGAUCACCCAUGUGGGCCAGAAGGCCUUGGGAGAAGGCAGAUCGGCUCC [Biseusra - 3] (puzzle: Same State 2)	0.019	0.0933	0.145			
GGAGGACAUGAGGAUCACCCAUGUAAAUGGGCGCUAGGAUAUGCGAGAGGGUGGAGAGGAGCAGAAGGAGUGGAUA [JR_SS1_Sub039] (puzzle: Same State 1)	0.105	0.18	0.207			
GGAGGACAUGAGGAUCACCCAUGUAGAUGGGCGCUAGGAUAUGCGAGAGGGUAGAGAGAAGCAGAAGGAGUGGAUU [JR_SS1_Sub041] (puzzle: Same State 1)	0.156	0.259	0.214			
GGAUCAUGACGAGGAUAUGGUACAUGAGGAUCACCCAUGUAUGUACCAUAACGCGUACGACGAAACCAGAAGGCGUCGUGGUCG [Mat - Same State NG 2 - JL mod - D40] (Eterna round: R96, puzzle: Same State NG 2)				0.00988	0.021	0.028
GGAUGAUAGACAGGAUAUUGAAUGUAAAUAGGACAAGAAGGGUCAAUGAUUUAAACGACCAGUUACAUGAGGAUCACCCAUGUU [JR_SSNG1_Sub024] (Eterna round: R96, puzzle: Same State NG 1)				0.0294	0.0367	0.0366
GGAUGAUAGACAGGAUAUUGAAUGUAAUUAGGACAAGAAGGGUCAAUGAUUUAAACGACCAGUUACAUGAGGAUCACCCAUGUU [JR_SSNG1_Sub025] (Eterna round: R96, puzzle: Same State NG 1)				0.0449	0.0381	0.0491
GGAUGAUGGACAGGAUAUUGAUUUUAAUGGUUUCAAGAAGGGUCUUUGAUUUAAACGACCAGUUACAUGAGGAUCACCCAUGUU [JR_SSNG1_Sub032] (Eterna round: R96, puzzle: Same State NG 1)				0.0401	0.0361	0.052
GGAUGAUUAAUAGGAUAUUAUUUGUAAAUUGGUUAAGAAGGAUUAAUGAUUUAAACGACCUGUUACAUGAGGAUCACCCAUGUU [JR_SSNG1_Sub090] (Eterna round: R96, puzzle: Same State NG 1)					0.0332	
GGCAUACAUGAGGAUCACCCAUGUUCAACCUAGAUAGGAUAUGGGCCUCUUGUAUUAGGCCCAGAAGGAUCUGUAA [Regea] (puzzle: Same State 1)		0.0864				
GGCCGGAGUCAAGGAUAUGCUACCGUUUCGGUAGCAGAAGGUGAUCACAUGAGGAUCACCCAUGUUUACUGGGAGACCACGGCC [JL SSNG1 3.70] (Eterna round: R96, puzzle: Same State NG 1)				0.105	0.134	0.166
GGCCUCUGUCAAGGAUAUGCUACCGUUUCGGUAGCAGAAGGUGAUCACAUGCGGGUCACCCAUGUUUAGGCCAACAGGCCCGCC (Eterna round: R96, puzzle: Same State NG 1)				0.063	0.00108	0.00357
GGCCUGCCGCAAGGAUAUGAAGCUUUCGCUCCGUCAGAAGGUGCACAUGAGGAUCACCCAUGUAGGCAGGCCAAGAACUAAAAC [Veveanus] (Eterna round: R96, puzzle: Same State NG 1)				0.213	0.042	0.123
GGCGUAUAAACAUGAGGAUCACCCAUGUAGCGGAGACGCAAUGAGGAUAUCGAUGGGUUUCCCGUCGAGAAGGCAUGGGUCGCC [JL SSNG3 3.93] (Eterna round: R96, puzzle: Same State NG 3)				0.017	0.0799	0.105
GGCUAUCGCGUACGAUAGCUUAAGCAUGUACAUGAGGAUCACCCAUGUCAUGUACAGGCUUUUUGCUCGUCUUAUUG [JL-shm-2.35 JL mod] (puzzle: Sensor for hsa-mir-208a)	0.517	0.017	0.467			
GGCUAUCGCGUACGAUAGCUUAGGCAUGUACAUGAGGAUCACCCAUGUCAUGUACAGGCUUGUUGCUCGUCUUAUUG [JL-shm-2.37 JL mod] (puzzle: Sensor for hsa-mir-208a)	0.202	0.0158	0.291			
GGGAAACCUCAAGGAUAUGCUACCGUUUCGGUAGCAGAAGGUGAUCACAUGAGGAUCACCCAUGUAUGCAUGCGUGAGCGUGCU [JL SSNG1 3.57] (Eterna round: R96, puzzle: Same State NG 1)				0.0426	0.0713	0.047
